Laboratory results taken from patent US8790905B2, “Fructosyl peptide oxidase” (Kyowa Medex Co., Ltd, priority 2008, dated 2014).

Columns and labels:
Assay type in all cases: biochemical, Emericella nidulans KY125
[1] = substrate: N[C@@H](CCCCNCC1(O)OC[C@@H](O)[C@@H](O)[C@@H]1O)C(=O)O; test: Km values of the fructosyl peptide oxidase FPOX-9 towards each type of substrate; conditions: other: Tris buffer (pH 7.5), 37° C.
Description: (§1) Substrate specificity of the novel FPOX-9 obtained in Example 2 to glycated peptides and/or glycated amino acids were measured using the following Reagent 1 to Reagent 3.
(§2) Herein, the FPOX-9 solution used was the one prepared in Example 3.
(§3) As substrates, glycated peptide α-FVH as well as glycated amino acids ε-FK and α-FV were used.
(§4) α-FVH solutions and α-FV solutions were prepared using Tris buffer to obtain each of the following concentrations in Reagent 3: 0, 0.05, 0.1, 0.5, 1, 2, 5, and 10 mmol/L. ε-FK solutions were prepared using Tris buffer to obtain each of the following concentrations in Reagent 3: 0, 1, 2, 5, 10, 20, 40, 50, 80, and 100 mmol/L.
(§5) 170 μL of Reagent 2 was added to 10 μL of Reagent 1, and after the reaction at 37° C. for five minutes, 20 μL of Reagent 3 was added, and the reaction was further continued at 37° C. for five minutes, a total of ten minutes. The absorbance at 546 nm (main wavelength)/800 nm (sub-wavelength) for 0 mmol/L at 5.4 minutes after starting the reaction was defined as A0′ (Abs), and the absorbance at 546 nm (main wavelength)/800 nm (sub-wavelength) for each substrate concentration at 5.4 minutes after starting the reaction was defined as A0^x (Abs), and ΔA0 was calculated according to Equation (I). (Mathematical Expression 1) ΔA0=A0^x−A0′(Abs) (I)
(§6) The absorbance at 546 nm (main wavelength)/800 nm (sub-wavelength) for 0 mmol/L at 6.6 minutes after starting the reaction was defined as As′ (Abs), and the absorbance at 546 nm (main wavelength)/800 nm (sub-wavelength) for each substrate concentration at 6.6 minutes after starting the reaction was defined as As^x (Abs), and ΔAs was calculated according to Equation (II). (Mathematical Expression 2) ΔAs=As^x−As′(Abs) (II)
(§7) The enzyme activity (U/mL) for each substrate concentration was calculated by substituting the obtained ΔA0 and ΔAs total amount of reaction solution (0.2 mL), molar extinction coefficient of TOOS (39,200), reaction time (1.2 minutes), and the light path length of the reaction cuvette (0.5 cm) into Equation (III). […]

[2] = substrate: CC(C)[C@H](NCC1(O)OC[C@@H](O)[C@@H](O)[C@@H]1O)C(=O)O; test: as above; conditions: other: Tris buffer (pH 7.5), 37° C.
Description: as §1, §2, §3, §4, §5, §6, §7

[3] = substrate: CC(C)[C@H](NCC1(O)OC[C@@H](O)[C@@H](O)[C@@H]1O)C(=O)N[C@@H](Cc1c[nH]cn1)C(=O)O; test: as above; conditions: other: Tris buffer (pH 7.5), 37° C.
Description: as §1, §2, §3, §4, §5, §6, §7

[4] = substrate: N[C@@H](CCCCNCC1(O)OC[C@@H](O)[C@@H](O)[C@@H]1O)C(=O)O; test: Km values of the fructosyl peptide oxidase FPOX-15 towards each type of substrate; conditions: 37° C.
Description: (§8) The substrate specificity of FPOX-15 obtained in Example 2 to glycated peptides and/or glycated amino acids was measured using the following Reagent 1 to Reagent 3.
(§9) Herein, for the FPOX-15 solution, a solution produced by four-fold dilution of the solution obtained in Example 3 was used.
as §3
(§10) α-FVH solutions and α-FV solutions were prepared using distilled water to obtain the following concentrations in Reagent 3: 0, 2, 2.5, 3, and 3.66 mmol/L. ε-FK solution was prepared using distilled water to obtain the following concentrations in Reagent 3: 0, 20, 30, 40, and 50 mmol/L.
as §5, with “150” for “170”, “5” for “10”, “wavelength)/700” for “wavelength)/800”
as §6, with “wavelength)/700” for “wavelength)/800”
(§11) The enzyme activity (U/mL) for each substrate concentration was calculated by substituting the obtained ΔA0 and ΔAs, total amount of reaction solution (0.2 mL), molar extinction coefficient of EMSE (33,800), reaction time (1.2 minutes), and the light path length of the reaction cuvette (0.5 cm) into Equation (III). (Mathematical Expression 3) Enzyme activity(U/mL)={(ΔAs−ΔA0)×total amount of reaction solution(mL)}/{molar extinction coefficient ε/1000×amount of enzyme solution(mL)×0.5×reaction time(min)×light path length(cm)} (III)
(§12) For each of the substrates α-FVH, ε-FK, and α-FV, a plot was produced with substrate concentration (mmol/L) on the horizontal axis and the corresponding enzyme activity (U/mL) on the vertical axis, and the substrate concentration corresponding to ½ of the maximum enzyme activity was calculated as the Km value (Michaelis constant).

[5] = substrate: CC(C)[C@H](NCC1(O)OC[C@@H](O)[C@@H](O)[C@@H]1O)C(=O)O; test: as above; conditions: 37° C.
Description: as §8, §9, §3, §10
as §5, with “150” for “170”, “5” for “10”, “wavelength)/700” for “wavelength)/800”
as §6, with “wavelength)/700” for “wavelength)/800”
as §11, §12

[6] = substrate: CC(C)[C@H](NCC1(O)OC[C@@H](O)[C@@H](O)[C@@H]1O)C(=O)N[C@@H](Cc1c[nH]cn1)C(=O)O; test: as above; conditions: 37° C.
Description: as §8, §9, §3, §10
as §5, with “150” for “170”, “5” for “10”, “wavelength)/700” for “wavelength)/800”
as §6, with “wavelength)/700” for “wavelength)/800”
as §11, §12

[7] = other: pH 6.0, sodium dihydrogen phosphate, pH 6.0
[8] = other: pH 7.0, sodium dihydrogen phosphate, pH 7.0
[9] = other: pH 8.0, sodium dihydrogen phosphate, pH 8.0

Protein	Km [1] [µM]	Km [2] [µM]	Km [3] [µM]	Km [4, 7] [µM]	Km [4, 8] [µM]	Km [4, 9] [µM]	Km [5, 7] [µM]	Km [5, 8] [µM]	Km [5, 9] [µM]	Km [6, 7] [µM]	Km [6, 8] [µM]	Km [6, 9] [µM]
Emericella nidulans KY125 fructosyl peptide oxidase variant FPOX-9 (Ser71Tyr, Ile94Met, Glu104Lys, Lys109Arg, Phe269Ile), SEQ ID NO: 1 (Aspergillus nidulans; … (protein) MAPRANTKIIVVGGGGTMGSSTALHLLRAGYTPSNITVLDTYPIPSAQSAGYDLNKIMSIRLRNKPDLQLYLEALDMWKNDPLFKPFFHNVGQMDVSSTEEGIKGLRMRYQSLLDAGIGLEKTNFLLESEDEILAKAPHFTREQIKGWKGLFCGDGGWLAAAKAINAIGQFLKEQGVKFGFGGAGTFKKPLFADADEKTCIGVETVDGTKYYADKVVLAAGAWSSTLVDLEEQCVSKAWVFAHIQLTPAEAAAYKNTPVIYDGDYGFFIEPNENGIIKVCDEFPGFTHFKMHQPYGSPVPKPISVPRSHAKHPTDTYPHASEVTIKKAINRFLPRFNDKELFNRAMCWCTDTADANLLVCEHPRWKGFYLATGDSGHSFKLLPNIGKHVVELLEGRLESVFKDAWRWRPGSGDALKSRRAAPAKDLADMPGWRNEAKM	4000	600	500	–	–	–	–	–	–	–	–	–
Emericella nidulans KY125 fructosyl peptide oxidase variant FPOX-15 (FPOX-9 with Met58Phe, Ser59Gly, Gly105Lys, Gly183Glu, Asn272Asp, Pro302Leu), SEQ ID NO: 3 … (protein) MAPRANTKIIVVGGGGTMGSSTALHLLRAGYTPSNITVLDTYPIPSAQSAGYDLNKIFGIRLRNKPDLQLYLEALDMWKNDPLFKPFFHNVGQMDVSSTEEGIKKLRMRYQSLLDAGIGLEKTNFLLESEDEILAKAPHFTREQIKGWKGLFCGDGGWLAAAKAINAIGQFLKEQGVKFGFGEAGTFKKPLFADADEKTCIGVETVDGTKYYADKVVLAAGAWSSTLVDLEEQCVSKAWVFAHIQLTPAEAAAYKNTPVIYDGDYGFFIEPDENGIIKVCDEFPGFTHFKMHQPYGSPVPKLISVPRSHAKHPTDTYPHASEVTIKKAINRFLPRFNDKELFNRAMCWCTDTADANLLVCEHPRWKGFYLATGDSGHSFKLLPNIGKHVVELLEGRLESVFKDAWRWRPGSGDALKSRRAAPAKDLADMPGWRNEAKM	–	–	–	23200	19200	9600	200	300	300	400	500	800
